Assay results as given in patent US20150344570A1 (published 2015).
Residue numbers refer to the chain shown, from its start. Names and notes keep the numbering of the source.

B1: H240-Kn201/H240-Hl076/L73-k0 (antibody, human IgG1, kappa)
heavy 1: QDQLVQSGAEVKKPGASVKVSCKASGFNIKDTYIQWVRQAPGQGLEWMGRIDPLRKQTKYREKFEGRVTITADTSTNTAYMELSSLRSEDTAVYYCVRSGREFDYWGQGTLVTVSSASTKGPSVFPLAPSSKSTSGGTAALGCLVKDYFPEPVTVSWNSGALTSGVHTFPAVLQSSGLYSLSSVVTVPSSSLGTQTYICNVNHKPSNTKVDKKVEPKSCDKTHTCPPCPAPEFQWGPMVFLFPPKPKDTLMISRTPEVTCVVVDVSDEEPEVKFNWYVDGVEVHNAKTKPREEQYNATYRVVSVLTVLHQDWLNGKEYKCKVSNKALPAPIEKTISKAKGQPREPQVCTLPPSRDELTKNQVSLWCLVKGFYPSDIAVEWESNGQPENNYKTTPPVLDSDGSFFLYSKLTVDKSRWQQGNVFSCSVMHEALHNHYTQKSLSLSP
heavy 2: QDQLVQSGAEVKKPGASVKVSCKASGFNIKDTYIQWVRQAPGQGLEWMGRIDPLRKQTKYREKFEGRVTITADTSTNTAYMELSSLRSEDTAVYYCVRSGREFDYWGQGTLVTVSSASTKGPSVFPLAPSSKSTSGGTAALGCLVKDYFPEPVTVSWNSGALTSGVHTFPAVLQSSGLYSLSSVVTVPSSSLGTQTYICNVNHKPSNTKVDKKVEPKSCDKTHTCPPCPAPELLGGPSVFLFPPKPKDTLMISRTPEVTCVVVDVSHEEPEVKFNWYVDGVEVHNAKTKPREEQYNSTYRVVSVLTVLHQDWLNGKEYKCKVSNDALPMPIEETISKAKGQPREPQVYTLPPSRCELTKNQVSLSCAVKGFYPSDIAVEWESNGQPENNYKTTPPVLDSDGSFFLVSKLTVDKSRWQQGNVFSCSVMHEALHNHYTQKSLSLSP
light: DIQMTQSPSSLSASVGDRVTITCRASQDIHKYIAWYQQKPGQAPRLLIQYTSTLQPGVPSRFSGSGSGTDYTFTISSLQPEDIATYYCLQYEQLRTFGGGTKVEIKRTVAAPSVFIFPPSDEQLKSGTASVVCLLNNFYPREAKVQWKVDNALQSGNSQESVTEQDSKDSTYSLSSTLTLSKADYEKHKVYACEVTHQGLSSPVTKSFNRGEC
notes: Anti-epiregulin heterodimerized IgG1, knobs-into-holes
B2: H240-Kn203/H240-Hl068/L73-k0 (antibody, human IgG1, kappa)
heavy 1: B1 heavy 1 with Q234Y, E269D, A326D
heavy 2: B1 heavy 2 with M329K
light: B1 light
notes: as for B1
B3: H240-Kn215/H240-Hl076/L73-k0 (antibody, human IgG1, kappa)
heavy 1: B1 heavy 1 with F233H
heavy 2: B1 heavy 2
light: B1 light
notes: as for B1
B4: H240-Kn208/H240-Hl076/L73-k0 (antibody, human IgG1, kappa)
heavy 1: B1 heavy 1 with F233D
heavy 2: B1 heavy 2
light: B1 light
notes: as for B1
B5: H240-Kn209/H240-Hl076/L73-k0 (antibody, human IgG1, kappa)
heavy 1: B1 heavy 1 with F233Q
heavy 2: B1 heavy 2
light: B1 light
notes: as for B1
B6: H240-Kn213/H240-Hl076/L73-k0 (antibody, human IgG1, kappa)
heavy 1: B1 heavy 1 with F233A
heavy 2: B1 heavy 2
light: B1 light
notes: as for B1
B7: H240-Kn212/H240-Hl076/L73-k0 (antibody, human IgG1, kappa)
heavy 1: B1 heavy 1 with F233T
heavy 2: B1 heavy 2
light: B1 light
notes: as for B1
B8: H240-Kn207/H240-Hl076/L73-k0 (antibody, human IgG1, kappa)
heavy 1: B1 heavy 1 with F233V
heavy 2: B1 heavy 2
light: B1 light
notes: as for B1
B9: H240-Kn216/H240-Hl068/L73-k0 (antibody, human IgG1, kappa)
heavy 1: B1 heavy 1 with F233V, Q234Y, E269D, A326D
heavy 2: B1 heavy 2 with M329K
light: B1 light
notes: as for B1
B10: H240-Kn205/H240-Hl212/L73-k0 (antibody, human IgG1, kappa)
heavy 1: B1 heavy 1 with F233Y, Q234L, W235G, M238S, D267H, E269D, Y295W, A297C
heavy 2: B1 heavy 2 with S238D, E269D, D325K, M329A, E333V
light: B1 light
notes: Anti-epiregulin heterodimerized IgG1, knobs-into-holes; L234Y/Y296W/S298C in one H chain, S239D/K334V in the other
B11: H240-Kn204/H240-Hl211/L73-k0 (antibody, human IgG1, kappa)
heavy 1: B1 heavy 1 with F233Y, Q234L, W235G, M238S, D267H, E269D, K289Y, Y295W, A297S
heavy 2: B1 heavy 2 with S238D, E269D, D325K, E333V
light: B1 light
notes: Anti-epiregulin heterodimerized IgG1, knobs-into-holes; L234Y/K290Y/Y296W in one H chain, S239D/A330M/K334V in the other
B12: H240-Kn210/H240-Hl076/L73-k0 (antibody, human IgG1, kappa)
heavy 1: B1 heavy 1 with F233I
heavy 2: B1 heavy 2
light: B1 light
notes: as for B1
B13: H240-Kn214/H240-Hl076/L73-k0 (antibody, human IgG1, kappa)
heavy 1: B1 heavy 1 with F233G
heavy 2: B1 heavy 2
light: B1 light
notes: as for B1
B14: H240-Kn211/H240-Hl076/L73-k0 (antibody, human IgG1, kappa)
heavy 1: B1 heavy 1 with F233M
heavy 2: B1 heavy 2
light: B1 light
notes: as for B1
B15: H240-Kn202/H240-Hl076/L73-k0 (antibody, human IgG1, kappa)
heavy 1: B1 heavy 1 with F233E
heavy 2: B1 heavy 2
light: B1 light
notes: as for B1
B16: H240-Kn217/H240-Hl068/L73-k0 (antibody, human IgG1, kappa)
heavy 1: B1 heavy 1 with F233D, Q234Y, E269D, A326D
heavy 2: B1 heavy 2 with M329K
light: B1 light
notes: as for B1

biological target: T1, FcgRIIIaF (human, UniProt P08637 17-208); assay: SPR (Biacore); KD of H240-Kn033/H240-Hl033/L73-k0 divided by KD of this variant
T1 construct: extracellular domain; also called FcγRIIIa F; 3aF; not shown: His tag attached to the C terminus
T1 sequence (P08637 17-208): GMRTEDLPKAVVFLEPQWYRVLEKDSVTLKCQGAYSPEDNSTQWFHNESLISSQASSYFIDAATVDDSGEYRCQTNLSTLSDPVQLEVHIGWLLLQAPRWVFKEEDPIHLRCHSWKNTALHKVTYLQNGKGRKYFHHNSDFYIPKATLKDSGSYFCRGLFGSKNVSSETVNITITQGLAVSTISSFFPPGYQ

Binder | fold 3aF [fold]
B1 | 161
B2 | 85.3
B3 | 112
B4 | 161
B5 | 121
B6 | 112
B7 | 138
B8 | 153
B9 | 85.3
B10 | 24.2
B11 | 20.7
B12 | 161
B13 | 85.3
B14 | 153
B15 | 181
B16 | 121

biological target: T2, FcgRIIaH (human, UniProt P12318 34-217); assay: as above
T2 construct: extracellular domain; also called FcγRIIa H; FcgRIIa type H; not shown: His tag attached to the C terminus
T2 sequence (looked up): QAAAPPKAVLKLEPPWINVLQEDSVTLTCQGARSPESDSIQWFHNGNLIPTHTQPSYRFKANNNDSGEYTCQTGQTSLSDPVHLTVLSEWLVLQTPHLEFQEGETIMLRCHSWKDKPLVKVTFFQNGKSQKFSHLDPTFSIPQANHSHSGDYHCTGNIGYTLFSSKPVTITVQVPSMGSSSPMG

Binder | fold 2aH [fold]
B1 | 3.7
B2 | 10.6
B3 | 2.1
B4 | 1.7
B5 | 2.1
B6 | 2.5
B7 | 2.3
B8 | 3.1
B9 | 16.3
B10 | 1.4
B11 | 0.7
B12 | 3.5
B13 | 1.6
B14 | 2.6
B15 | 1.4
B16 | 6.8

biological target: T3, FcgRIIaR (human, UniProt P12318 34-217); assay: as above
T3 construct: extracellular domain; also called FcγRIIa R; FcgRIIa type R; not shown: His tag attached to the C terminus
T3 sequence (looked up): T2 sequence (looked up) with H134R

Binder | fold 2aR [fold]
B1 | 1
B2 | 16.1
B3 | 0.7
B4 | 1.5
B5 | 0.6
B6 | 0.9
B7 | 1.2
B8 | 1.1
B9 | 32.2
B10 | 1.2
B11 | 1.2
B12 | 1.3
B13 | 0.7
B14 | 1.3
B15 | 1.2
B16 | 26.4

biological target: T4, FcgRIIIaV (human, UniProt P08637 17-208); assay: as above
T4 construct: extracellular domain; also called FcγRIIIa V; 3aV; not shown: His tag attached to the C terminus
T4 sequence (P08637 17-208 F176V limits assumed): as the sequence (P08637 17-208) above, with F160V counted along it

Binder | fold 3aV [fold]
B1 | 133
B2 | 63.2
B3 | 70.6
B4 | 120
B5 | 77.4
B6 | 65.8
B7 | 82.8
B8 | 98
B9 | 104
B10 | 11.4
B11 | 6.5
B12 | 98
B13 | 60
B14 | 92.3
B15 | 126
B16 | 126

biological target: T5, FcgRIIb (human, UniProt P31994 43-217); assay: as above
T5 construct: extracellular domain; also called FcγRIIb; 2b; not shown: His tag attached to the C terminus
T5 sequence (looked up): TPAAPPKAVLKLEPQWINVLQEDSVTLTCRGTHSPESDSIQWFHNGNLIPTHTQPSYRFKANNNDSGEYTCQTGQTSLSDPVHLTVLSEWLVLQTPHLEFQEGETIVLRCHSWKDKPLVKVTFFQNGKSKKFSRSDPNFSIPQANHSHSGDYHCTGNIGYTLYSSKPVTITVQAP

Binder | fold 2b [fold]
B1 | 0.6
B2 | 12.2
B3 | 0.5
B4 | 1
B5 | 0.4
B6 | 0.5
B7 | 0.6
B8 | 0.6
B9 | 20.6
B10 | 2.1
B11 | 2.5
B12 | 0.8
B13 | 0.5
B14 | 0.8
B15 | 0.8
B16 | 27.5
